Experiment: yeast display, Sf9 membrane polyspecificity reagent, FACS + sequencing; frameworks hold sequencing errors
Procedure, shortened: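 Sorting gates, low and high (top ~1%), were placed on anti-HA fluorescence to track expression and on streptavidin fluorescence to track reagent binding. A clone's polyreactivity label is taken from the gate it came out of. The reagent was 10% biotinylated, detergent-solubilized Sf9 membrane, applied for 1 hour at 4 °C to galactose-induced yeast display cells.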

Row | Sequence | polyreactivity (PSR sort gate)
1 | QVQLVESGGGLVQAGGSLRLSCAASGGIFDTYAMGWYRQAPGKERELVAAISSTGGSTYYADSVKGRFTISRDNAKNTVYLQMNSLKPEDTAVYYCNAVLARFWRYRRWEYDYWGQGTQVTLSS | high polyreactivity
2 | QVQLVESGRGLVQAGGSLRLSCAASGSTFGRYVMGWYRQAPGKERELVAAISKNAGSTYYADSVKGRFTISRDNAKNTVYLQMNSLKPEDTAVYYCNRERRYRNDYWGQGTQVTVSS | high polyreactivity
3 | QVQLVESGGGLVQAGGSLRLSCAASGSTFGRYAMGWYRQAPGKERELVAAISRRGGSTYYADSVKGRFTISRDNAKNTVYLQMNSLKPEDTAVYYCATGYPIDLGREFDYWGQGIQVTVSS | high polyreactivity
4 | QVQLVESGGGLVQAGGSLRLSCAASGSIFTVNAMGWYRQAPGKERELVATITNGGGTYYADSVKGRFTISRDNAKNTVYLQMNSLKPEDTAVYYCAARTWGHYDYWGQGTQVTVSS | low polyreactivity
5 | QVQLVESGGGLVQAGGSLRLSCDASGSIFSIYAMGWYRQAPGKERELVAAISSGGSTYYADSVKGRFTISRDNAKNTVYLQMNSLKPEDTAVYYCAADAAYYSGYDYWGQGTQVTVSS | low polyreactivity
6 | QVQLVESGGGLVQAGGSLRLSCAASGRTFVTYAMGWYRQAPGKERELVAAISASGGSTYYADSVKGRFTISRDNAKNTVYLQMNSLKTEDTAVYYCAKTYFLATPYGYWGQGTQVTVSS | low polyreactivity
7 | QVQLVESGGGLVQAGGSLRLSCAASGGIFWRYAMGWYRQAPGKERELVAAISSRGGSTYYADSVKGRFTISRDNAKNTVYLPMNSLKPEYTAVYYCAAAFLSRVQGYDSWGQGTQVTVSS | high polyreactivity
8 | QVQLVESGGGLVQAGGSLRLSCAASGYIFQDYAMGWYRQAPAKERELVARISAGGGRTYYADSVKGRFTISRDNAKNTVYLQMISLKPEDTAVYYCAAPLSYYWVYIVRYGYDYWGQGTQVTVSS | low polyreactivity
9 | QVQLVESGGGLVQAGGSLRLSCAASGSTFYDYAMGWYRQAPWKERELVAAITSGGSTYADSVKGRFTISRYNAKNTVYLQMNSLKPEDTAVYYCNKDFVVEYWWHHVYVYYYLGDYWGQGTQVTVSS | low polyreactivity
10 | QVQLVESGGGLVQAGGSLRLSCAASGRTFRNNTMGCYRQAPGKERELVATITGSGGSTYYADSVKGRFTISRDNSKNTVYLQMNSLKPEDTAVYYCAAVGDQNEYVYWGQGTQVTVSS | low polyreactivity
11 | QVQLVESGGGLVQAGGSLRLSCAASGRIFSAYTMGWYRQAPGKERELVAAITWSGGTTYYADSVKGRFTISRDNAKNTVYLQINSLKPEDTAVYYCAAESSWYVLYGSYYRSGLEYWGQGTLVTVSS | low polyreactivity
12 | QVQHVESGGGLVQAGGSLRLSCAASGSTFWYNAMGWYRQAPGKERELVAAISYSGGRTYYADSVKGRFTISRDNAKNTVYLQMNSLKPEDTAVYYCNADSRYGGDYWGQGTQVTVSS | low polyreactivity
13 | QVQLVESGGGLVQAGGSLRLSCAASGTFVTYMGLYRQAPGKERELVAAIRNGGSTNYADSVKGRFTISRDNAKNTVYLQMNSLKPEDTAVDYFTADYTYWNGWFATRDYWGQGTQVTVSS | low polyreactivity
14 | QVQLVESGGGLVQAGGSLRLSCAASGFIFDWYAMGSYSQAPGKEREFVAAINWSGGSTYYADSVKGRFTISRDNAKNTVYLQMNSLKPEDTAVYYCAAYRPYSSSEGVYWGQGTQVTVSS | high polyreactivity
15 | QVQLVESWGGLVQAGGSLRLSCAASGSTFGKYAMGWYRQAPGKERELVAAISYRGGRTFYADSVKGRFTISRDNAKNTVYLQMNSLKPEDTAVYYCAAYPGVSRGTGPRRYDYWGQGTQVTVSS | high polyreactivity
16 | QVQLVESGGGLVQAGGSLRLSCAASGSTFKWYTMGWYRQAPGNEREFVAAISSSGGRTYYADSVKGRFTISRDNAKNTDYLQMNCLKPEDTAVYFCAAGYLYQFRAATFGYWGQGTQVTVSS | high polyreactivity
17 | QVQLVESGGGLGQAGGSLRLSCAASGSTFTRYGMGWSRQAPGKERELVAAITTSGSSTYYADSVKGRFTISRDNAKNTVYLQMNSLKPEDTAVYYCAADWSSWGFDYWGQGTQVTVSS | low polyreactivity
18 | QVQLVESGGGLVQAGGSLRLSCAASGSTFDAYAMGWYIQAPGKERELVAAITNGGSTNYADSVKGRFTISRDNAKNTVYLQMNSLQPEDTAVYYCNAQHRTVRGIFGRFNYWGQGTQVTVSS | low polyreactivity
19 | QVQLVESGGGLVQAGGSLPLSCAASGYTFQRYAMGWYRQAPGKERELVAAITGAGGSTYYADSVKGRFTISRDNAKNTVYLQMNSLKPEDTAVYYCAARQYRRVIKHGYNYWGQGTQVTVSS | high polyreactivity
20 | QVQLVESGGGLVQAGGSLRLSCAASGRIFRGYAMGWYRQAPGKERELVATISAIGGSTYADSVKGRFTISRDNAKNTVYLQRNSLKPEDTAVYYCNVRKVYRYQYRFEYWGQGTQVTVSS | high polyreactivity
21 | QVQLVESVGGLVQAGASLRLSCAPSGSTFPVYAMGWYRPAPGKESELVARISSGSSTNYADSVKGRFTISRDNAKITVYLQMNSLKPEDTAVYYCAAQTPRFVWQKGPLDSEDYWGQGTQVTVSS | high polyreactivity
22 | QVQLVESGGGLVQAGGSLRLSCAASGIIFYSYAMGWYRQAPGKERELVAAISRRGTSTFYADSVKGRFTISRDNAKNTVYLQMNSLKPEDTAVSYCNARYKYYRGSGMDSWGQGTQVTVSS | high polyreactivity

Row | Sequence | polyreactivity (PSR sort gate)
23 | QVQLEESGGGLVQAGGSLRLTCAASGIIFRFYAMRCDRQAPGKERELVAVITSRSDSTYYADSVKGRFTISRDYAKNTVYLQMNSVKPEDTAVYYCNARYPWYYRYSTYDYWGQGTQVTVSS | high polyreactivity
24 | QVQLVESGGGLIQAVRSHRLSFAASGSTFRRYAMRWYRQEPGKEREISTSDGSTYYADSVKGRFTISRENAKNTVYLQMNSLKPEDTAVYYCAADGYRKLIEDITDDYCGQGTQVTVSS | low polyreactivity
25 | QVQLVESGGGLVQAGGSLRLSCAASGSIFNWNAMGWYRQAPGKERDLVATITITTSTNYADSVKGRFTISRDNAKNSVYLQMNCLKPEDNGVYYCNAGDPYRYLDDYNYWGQGTKVTVSS | low polyreactivity
26 | QVQLVQSGGGLVQAGGSLRLSCADSGSIFEYYTMGWYRQAPGKERELVAAISDGGSTYYADSVKGRFTISRDNAKNTVYLQMYSLKPEDTAVYYCAAEYQQDFWVAVDYWGQGTQVSVSS | low polyreactivity
27 | QVQLVESGGGLVQAGGSLRLSCAASVRIFEVYAMGWYRQAPGKERELVAAISSGGGSTYYADSVKGRFTISRDNAKNTVFLQMISLKPEDTAVYYCAADEVTKKNSFPRIMDYWGQGTQVTVSS | high polyreactivity
28 | QVQLVESGGGLVQAGGSLRLSCAASGSTFSGYAMGWYRQAPGKERELVAAISTDDTYYADSVKGRFTISRDNPKNTVYLQKNSLKPEDTAVYYCAADYLGYYGLEEHWGQGTQVTVSS | high polyreactivity
29 | QVQLVESGRGLVQAGGSLRLSCAASGSIFIANPMGWYRQAPGKQREFVADITLNGGSTYYADSVKGRFTISRDNAKNTVYLEMNRLNPEDTAVYYCAADWVWVAPQYWIVEYDYWGQGTQVTVSS | low polyreactivity
30 | QVQLVETGGGLVQAGGSLRISCAASGIIFRNYAKGWYTQAPGKERELVADISWSGGTTYYADSVKGRFTISRDNEKHTVYLQMNSLKPEDTAVYYCAASSYRRQYGYWGQGTQVTVSS | high polyreactivity
31 | QVQLVESGGGLVQAGGSLRLSCAASGRIFITNAMGWYRQAPGKERELVAVISYIGGRTYYADSVKGRFTISRDNAKNTVYLQMNSLKPEATAVYYCAARRSRPTYYSTGVNYWGQGTQVTVSS | high polyreactivity
32 | QVQLVESGGGLVQAGGSLRLSCAASGLIFYSYTMGWYRQAPGKERELVASITWTGGSTYYADSVKGRFTISRDNAKNTVYLQMNSLKPEDTAVYYCAVRVPSSIHIQLDYWGQGTQVTVSS | high polyreactivity
33 | QVQLVESGGGLVQAGGSLRLSCAASGSIFSYYAMGWYRQAPGKERELVAAITSGGATTYYADSVKGRFTISRDNAKNTVYLQMNSLKPEDTAVYYCAAGYYVYYRWWELDYWGQGTQVTVSS | low polyreactivity
34 | QVQLVESGGGLVQEGGSLRISCAASGRIFYYYVMGGYRQAPGKERELVAGITSRGRTYYADSVKGRFTISRDNAKNTVYLQMNSLKPEVTAVYDCNKVGATWRQWFGYWGQGTQVTVSS | high polyreactivity
35 | QVQLVESGGGLDQAGGSLRLSCAASGYIFYRNAMGCYRQAPGKERELVAAITYTGGRTYYADSVKGRFTISRDNAKNTVYLQMNSLKPEDTAVYYCNADGRVFVVRPYYDYEYWGQGTQVTVSS | low polyreactivity
36 | QVQLVESGGGLVQAGGSLRLSCAASGFTFSTNAMGWYRQAPGKERELVAAISPDGGTYYADSVKGRFTISRDNAKNTVYLQMNSLKPEDTAVYYCAAVWGRGVWDLYDYWGQGTQVTVSS | low polyreactivity
37 | QVQLVESGGGLVQAGGSLRLSCAASGRIFKENAMGWYRQAPGKERELVAAISSGASTSYADSVKGRFTISRDNAKNTVYLQMNSLKPEDTAVYYCNRGGDLYYPGWLFDYWGQGSQVTVSS | low polyreactivity
38 | QVQLVESGGGLVQAGGSLRLSCAASGGIFSWYDMGWYRQAPGKEREFVATITYSGGSTYYADSVKGRFTISRDNAKNTVYLQMNSLKPEDTAVYYCAAARYWYRRFDYWGQGTQVTVSS | high polyreactivity
39 | QVQLVESGGGLVQAGGSLRLSCAASGFIFVGNVMGWYRQAPGKERELVARISTSGGSTYYADSVKGRFTISRDNAKNTVYLQMNSLKPEDTAVYYCAARRRTGREYGYWGQGTQVTVSS | high polyreactivity
40 | PDQLVESGGGLVQAGGSLRLSCAASGRIFGTNAMGWYRQAPGKERELVADITSGGSTNYADSVKGRFTISRDNAKNTVYLQMNSLKPEDTAVYYCAADVIGDLRWYRDEYWGQGTQVTVSS | low polyreactivity
41 | QVQLVESGGGLVQAGGSLRLSCAASGRTYISNVIGWYRQAPGKERELVAAISGSSGSTRYADSVKGRFTISRDNAKNTVYLQMNSLKPEDSAVYYCAARAPWPKWGYYYWGQGTQVTVSS | high polyreactivity
42 | QVQLVESGGGLVQAGGSLRLSCAASGSIFPINAMGWSRQAPGKERELVAAITVSDGRTYYADSVKGRFTISRDNAKNTVYLQMNSLKPEDTAVYYCAAVTPFRVLYDYWGQGTQVTVSS | low polyreactivity
43 | QVQLVESGGGLVQAGGSLRLSCAASGFTLGSKVMGWYRQAHGKERELVAGISQSGGRTFYADSVKGRFTISRDNAKNTVYLQMNSLKPEDTAVYYCAAGYYPYWGQGTLVTVSS | low polyreactivity

— the nanobody polyreactivity screen of Harvey et al. (2022)
